Measured values from the supplement of paper PMC10567573.

B1: ALDH8A1 (parent)
chain: RVAKKLQSGLVWTNCWLIRELNLP
B2: TMEM120A (parent)
chain: YQSFVQFLQYYYQSGCLYRLRALG

Variants of: B1
Test: protein stability index of a GFP-peptide fusion (GPS, HEK-293T) (PSI 1-6); higher = more stable
Settings: c terminus: a fixed tail appended
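Note: lentivirally expressed fusions sorted by FACS into six bins by GFP to DsRed ratio, PSI derived from sequencing read proportions per bin multiplied by bin number.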

| Variant | protein stability index |
| --- | --- |
| RVAKKLQSGLDWTNCWLIRELNLP | 2.32 |
| RVAKKLQSGLEWTNCWLIRELNLP | 2.29 |
| RVAKKLQSGLLWTNCWLIRELNLP | 2.91 |
| RVAKHLQSGLVWTNCWLIRELNLP | 3.18 |
| RVAKILQSGLVWTNCWLIRELNLP | 2.13 |
| RVAKKLQSGLVWTICWLIRELNLP | 1.2 |
| RVAKKLQSGLVWTPCWLIRELNLP | 2.06 |
| RVAKKLQSGLVWTFCWLIRELNLP | 2.33 |
| RVAKKLQSGLVWTDCWLIRELNLP | 2.19 |
| RVAKKLQSGLVWTLCWLIRELNLP | 2.19 |
| RVAKKLLSGLVWTNCWLIRELNLP | 4.65 |
| RVAKKLMSGLVWTNCWLIRELNLP | 1.85 |
| RVAKKLWSGLVWTNCWLIRELNLP | 2.85 |
| RVAKKLQSGLVWTNIWLIRELNLP | 2.44 |
| RVAKKLQSGLVWTNHWLIRELNLP | 3.92 |
| RVAKKLQSGLVWTNCFLIRELNLP | 2.47 |
| RVAKKLQSGLVWTNCELIRELNLP | 1.43 |
| RVAKKLQSGLVWTNCQLIRELNLP | 1.03 |
| RVAKKLQSGLVWTNCMLIRELNLP | 3.3 |
| RNAKKLQSGLVWTNCWLIRELNLP | 2.49 |
| RTAKKLQSGLVWTNCWLIRELNLP | 2.33 |
| RVAKKLQSGLVWTNCWLIREHNLP | 2.79 |
| RVAKKLQSGLVETNCWLIRELNLP | 2.75 |
| RVAKKLQSMLVWTNCWLIRELNLP | 3.32 |

| Variant | protein stability index |
| --- | --- |
| RVAKKLQSGLVWTNCWLIRELNLT | 2.19 |
| RVAKKLQSGLVWTNCWLDRELNLP | 1.73 |
| RVAKKLQSGLVWTNCWLIRELTLP | 2.17 |
| RVAKKLQSGLVWTNCWLIRELYLP | 3.15 |
| RVAKKLQSGLVWTNCWLIRELPLP | 3.03 |
| RVAKKLQSGLVWTNCWLIRELGLP | 2.7 |
| RVAKKLQSGLVWTNCWLIRELKLP | 4.74 |
| RVAKKLQAGLVWTNCWLIRELNLP | 3.67 |
| RVAKKLQTGLVWTNCWLIRELNLP | 1.94 |
| RVAKKLQSGLVWTNCWLIRYLNLP | 3.02 |
| RVAKKQQSGLVWTNCWLIRELNLP | 2.86 |
| RVAKKLQSGLVWTNCWLIFELNLP | 1.5 |
| RVAKKLQSGLVWTNCWLILELNLP | 2.18 |
| TVAKKLQSGLVWTNCWLIRELNLP | 3.94 |
| FVAKKLQSGLVWTNCWLIRELNLP | 3.15 |
| RVARKLQSGLVWTNCWLIRELNLP | 2.29 |
| RVAMKLQSGLVWTNCWLIRELNLP | 2.82 |
| RVACKLQSGLVWTNCWLIRELNLP | 1.05 |
| RVAHKLQSGLVWTNCWLIRELNLP | 2.45 |
| RVAKKLQSGLVWHNCWLIRELNLP | 1.57 |
| RVAKKLQSGLVWTNCWEIRELNLP | 2.77 |
| RVAKKLQSGLVWTNCWPIRELNLP | 1.68 |
| RVAKKLQSGLVWTNCWRIRELNLP | 3.13 |
| RVAKKLQSGLVWTNCWKIRELNLP | 1.34 |

Variants of: B2
Test: as above
Settings: c terminus: a fixed tail appended

| Variant | protein stability index |
| --- | --- |
| YQSFVQFLQYYYQVGCLYRLRALG | 3.65 |
| YQSFVQFLQYYYQGGCLYRLRALG | 3.08 |
| YQSFVQFLQYYYQTGCLYRLRALG | 3.4 |
| YQSFVQFLQYYYQIGCLYRLRALG | 3.42 |
| YQSFVQFLQYYYQHGCLYRLRALG | 2.92 |
| YQSFVQYLQYYYQSGCLYRLRALG | 5.14 |
| YQSFVQILQYYYQSGCLYRLRALG | 2.33 |
| YQSFVQDLQYYYQSGCLYRLRALG | 1.8 |
| YQSFVQNLQYYYQSGCLYRLRALG | 3.1 |
| YQSFVQTLQYYYQSGCLYRLRALG | 2.28 |
| YQSFVQWLQYYYQSGCLYRLRALG | 3.54 |
| YQSFVQLLQYYYQSGCLYRLRALG | 3.51 |
| YQSFVQHLQYYYQSGCLYRLRALG | 1.62 |
| YQSFVQSLQYYYQSGCLYRLRALG | 1.04 |
| YQSFVQFLQYYYQSGCTYRLRALG | 1.6 |
| YQSFVQFLQYYYQSGCWYRLRALG | 3.23 |
| YQSFVQFLQYYYQSGCCYRLRALG | 3.92 |
| YQSFVQFLQYYYQSGCFYRLRALG | 2.63 |
| YQSFVQFLQYYYQSGCDYRLRALG | 3.82 |
| YQSFVQFLQYYYQSGCMYRLRALG | 2.14 |
| YQSFVQFLQYYYQSGCRYRLRALG | 4.75 |
| YQSFVQFLQYYYQSGCLYRLYALG | 2.7 |
| YQSFVQFLQYYYQSGCLYRLNALG | 3.14 |
| YQSFVQFLQYYYQSGCLYRLKALG | 2.17 |

| Variant | protein stability index |
| --- | --- |
| YQSFVQFLQYYYQSGCLNRLRALG | 1.79 |
| YQSFVQFLQYYYQSGCLLRLRALG | 4.02 |
| YQSFVQFLQYYYQSGCLRRLRALG | 1.85 |
| YQSFVQFLQYYYQSGCLPRLRALG | 2.45 |
| YQSFVQFLQYYYQSGCLARLRALG | 1.84 |
| YQSFVQFLQYYYQSGCLYRLRALQ | 3.31 |
| YQSFVQFLQYYYQSGCLYRLRALF | 2.43 |
| YQSFVQFLQYYYQSGCLYRLRALM | 2.92 |
| YQSFVQFLQYYYQSGCLYRLRALY | 2.12 |
| YQSFVQFLQYYYQSGCLYRLRALW | 2.13 |
| YQSWVQFLQYYYQSGCLYRLRALG | 2.8 |
| YQSDVQFLQYYYQSGCLYRLRALG | 1.31 |
| YQSCVQFLQYYYQSGCLYRLRALG | 3.14 |
| YQSTVQFLQYYYQSGCLYRLRALG | 3.43 |
| YQSSVQFLQYYYQSGCLYRLRALG | 1.59 |
| YQSPVQFLQYYYQSGCLYRLRALG | 2.47 |
| YQSAVQFLQYYYQSGCLYRLRALG | 3.21 |
| YQSMVQFLQYYYQSGCLYRLRALG | 2.91 |
| YQSLVQFLQYYYQSGCLYRLRALG | 3.35 |
| YQSYVQFLQYYYQSGCLYRLRALG | 2.38 |
| YQSFVQFLQYAYQSGCLYRLRALG | 1.28 |
| YQSFVQFLQYWYQSGCLYRLRALG | 1.74 |
| YQSFVQFLQYCYQSGCLYRLRALG | 2.45 |
| YQSFVQFLQYFYQSGCLYRLRALG | 3.33 |

| Variant | protein stability index |
| --- | --- |
| YQSFVQFLQYRYQSGCLYRLRALG | 3.03 |
| YQSFVGFLQYYYQSGCLYRLRALG | 3.6 |
| YQSFVRFLQYYYQSGCLYRLRALG | 2.24 |
| YQSFVLFLQYYYQSGCLYRLRALG | 3.11 |
| YQSFVDFLQYYYQSGCLYRLRALG | 3.22 |
| YQSFVEFLQYYYQSGCLYRLRALG | 1.84 |
| YQSFVQFLFYYYQSGCLYRLRALG | 2.13 |
| YQSFVQFLMYYYQSGCLYRLRALG | 1.77 |
| YQSFVQFLPYYYQSGCLYRLRALG | 1.25 |
| YQSFVQFLNYYYQSGCLYRLRALG | 2.7 |
| YQSFVQFLQGYYQSGCLYRLRALG | 3.01 |
| YQSFVQFLQCYYQSGCLYRLRALG | 2.56 |
| YQSFVQFLQIYYQSGCLYRLRALG | 4.51 |
| YQSFVQFLQEYYQSGCLYRLRALG | 1.79 |
| YQSFVQFLQHYYQSGCLYRLRALG | 2.17 |
| YQSFVQFLQYYCQSGCLYRLRALG | 4.09 |
| YQSFVQFLQYYAQSGCLYRLRALG | 3.04 |
| YQSFVQFLQYYTQSGCLYRLRALG | 2.73 |
| YQSFVQFLQYYKQSGCLYRLRALG | 1.86 |
| YQSFVQFLQYYGQSGCLYRLRALG | 2.04 |
| YQSFVQFLQYYMQSGCLYRLRALG | 3.19 |
| YQSFVQFLQYYYQSGCLYRLRYLG | 2.13 |
| YQSFVQFLQYYYQSGCLYRLRTLG | 3.45 |
| YQSFVQFLQYYYQSGCLYRLRSLG | 2.32 |

| Variant | protein stability index |
| --- | --- |
| YQSFVQFLQYYYQSGCLYRLRILG | 3.44 |
| YQSFVQFLQYYYQSGCLYRLRFLG | 1.59 |
| YQSFVQFLQYYYQSGCLYRLRKLG | 1.96 |
| YQSFVQFLQYYYQSGCLYALRALG | 2.88 |
| YQSFVQFLQYYYQSGCLYLLRALG | 1.22 |
| YQSFVQFLQYYYQSGCLYILRALG | 1.84 |
| YQSFVQFLQYYYQSGCLYWLRALG | 3.14 |
| YQSFVQFLQYYYQSGCLYCLRALG | 2.93 |
| YQSFVQFLQYYYQSGCLYTLRALG | 1.74 |
| YQSFVQFLQYYYQSGCLYKLRALG | 3.35 |
| YQSFVQFLQYYYQSGCLYMLRALG | 1.97 |
| YQSFVQFLQYYYQSGCLYSLRALG | 3.54 |
| YQSFVQFLQYYYQSGCLYGLRALG | 1.88 |
| YQSFVQFLQYYYQSGCLYRLRAGG | 3.3 |
| YQSFVQFLQYYYQSGCLYRLRASG | 2.6 |
| YQSFVQFLQYYYQSGCLYRLRACG | 3.82 |
| YQSFVQFLQYYYQSGCLYRLRAFG | 1.77 |
| YQSFVQFLQYYYQSGCLYRLRAYG | 2.61 |
| YQSFVQFLQYYYMSGCLYRLRALG | 4.22 |
| YQSFVQFLQYYYCSGCLYRLRALG | 3.12 |
| YQSFVQFLQYYYWSGCLYRLRALG | 4.1 |
| YQSFVQFLQYYYLSGCLYRLRALG | 2.38 |
| YQSFVQFLQYYYGSGCLYRLRALG | 2.27 |
| YQSFVQFLQYYYYSGCLYRLRALG | 1.97 |

| Variant | protein stability index |
| --- | --- |
| YQSFVQFLQYYYSSGCLYRLRALG | 3.55 |
| YQSFNQFLQYYYQSGCLYRLRALG | 4.88 |
| YQSFHQFLQYYYQSGCLYRLRALG | 2.39 |
| YQSFKQFLQYYYQSGCLYRLRALG | 2.62 |
| YQSFRQFLQYYYQSGCLYRLRALG | 3.82 |
| YQSFFQFLQYYYQSGCLYRLRALG | 2.25 |
| YESFVQFLQYYYQSGCLYRLRALG | 3.02 |
| YRSFVQFLQYYYQSGCLYRLRALG | 1.21 |
| YMSFVQFLQYYYQSGCLYRLRALG | 3.47 |
| YSSFVQFLQYYYQSGCLYRLRALG | 2.29 |
| YWSFVQFLQYYYQSGCLYRLRALG | 1.21 |
| YISFVQFLQYYYQSGCLYRLRALG | 2.65 |
| YQSFVQFLQYYYQSGCLYRDRALG | 2.38 |
| YQSFVQFLQYYYQSGCLYRWRALG | 2.31 |
| YQSFVQFLQYYYQSGCLYRMRALG | 2.47 |
| YQSFVQFLQYYYQSGCLYRARALG | 1.85 |
| YQSFVQFLQYYYQSGCLYRQRALG | 4.03 |
| YQSFVQFLQYYYQSGCLYRVRALG | 3.1 |
| YQPFVQFLQYYYQSGCLYRLRALG | 3.24 |
| YQNFVQFLQYYYQSGCLYRLRALG | 2.12 |
| YQMFVQFLQYYYQSGCLYRLRALG | 3.7 |
| YQVFVQFLQYYYQSGCLYRLRALG | 3.32 |
| YQDFVQFLQYYYQSGCLYRLRALG | 3.12 |
| YQRFVQFLQYYYQSGCLYRLRALG | 2.35 |

| Variant | protein stability index |
| --- | --- |
| YQSFVQFLQYYYQSICLYRLRALG | 2.66 |
| YQSFVQFLQYYYQSSCLYRLRALG | 2.95 |
| YQSFVQFLQYYYQSLCLYRLRALG | 3.31 |
| YQSFVQFLQYYYQSGQLYRLRALG | 2.49 |
| YQSFVQFLQYYYQSGKLYRLRALG | 1.72 |
| YQSFVQFTQYYYQSGCLYRLRALG | 1.88 |
| YQSFVQFQQYYYQSGCLYRLRALG | 2.13 |
| YQSFVQFYQYYYQSGCLYRLRALG | 2.79 |
| YQSFVQFWQYYYQSGCLYRLRALG | 1.62 |
| YQSFVQFSQYYYQSGCLYRLRALG | 1.28 |
| YQSFVQFHQYYYQSGCLYRLRALG | 1.73 |
| YQSFVQFGQYYYQSGCLYRLRALG | 3.09 |
| YQSFVQFCQYYYQSGCLYRLRALG | 2.17 |
| YQSFVQFAQYYYQSGCLYRLRALG | 3.44 |
| YQSFVQFNQYYYQSGCLYRLRALG | 2.08 |
| QQSFVQFLQYYYQSGCLYRLRALG | 2.83 |
| IQSFVQFLQYYYQSGCLYRLRALG | 2.24 |
| FQSFVQFLQYYYQSGCLYRLRALG | 3.06 |
| KQSFVQFLQYYYQSGCLYRLRALG | 2.19 |
| SQSFVQFLQYYYQSGCLYRLRALG | 1.86 |
